Results from US20250152729A1 (CANCER RESEARCH TECHNOLOGY, published 2025).

B1: C0120904 (antibody, V domains shown)
VH: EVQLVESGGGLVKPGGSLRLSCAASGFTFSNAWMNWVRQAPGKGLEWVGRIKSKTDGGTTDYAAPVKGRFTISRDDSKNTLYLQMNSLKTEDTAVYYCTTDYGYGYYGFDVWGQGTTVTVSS
VL: SYELTQPPSVSVSPGQTATISCSGNKLGDGYVSWYQQKPGQSPVLVIYQDSKRPSGIPQRYSGSNSGNTATLTISGTQAIDEADYYCQAWDSSTVVFGGGTKVTVL
notes: un-purified fully human phage display IgG, primary screen; also called C0120904 un-purified human IgG1
B2: mouse 5E3 Fab fragment (Fab, V domains shown)
VH: QVQLQQPGAELVMPGASVKMSCKASGYTFTDYWMHWVKQRPGQGLEWIGAIDTSDSYTSYNQKFKGKATLTVDESSSTAYMQLSSLTSEDSAVYYCARDYGNFYYYAMDYWGQGTSVTVSS
VL: QAVVTQESALTTSPGETVTLTCRSSTGAVTTSNYANWVQEKPDHLFTGLIGGTNNRAPGVPARFSGSLIGDKAALTITGAQTEDEAIYFCALWYSNHWVFGGGTKLTVL
notes: Fab from pEU1.3 Fab vector (human CH1 and part of hinge) with a whole human light chain constant; also called Mouse 5E3 (KD Fab)
B3: 5Hg1-5Lg1 Fab fragment (Fab, V domains shown)
VH: QVQLVQSGAEVKKPGASVKVSCKASGYTFTDYWMHWVRQAPGQGLEWMGAIDTSDSYTSYNQKFKGRVTMTRDTSTSTVYMELSSLRSEDTAVYYCARDYGNFYYYAMDYWGQGTLVTVSS
VL: QAVVTQEPSLTVSPGGTVTLTCRSSTGAVTTSNYANWFQQKPGQAPRTLIYGTNNRAPWTPARFSGSLLGGKAALTLSGAQPEDEAEYYCALWYSNHWVFGGGTKLTVL
notes: Fab from pEU1.3 Fab vector (human CH1 and part of hinge) with a whole human light chain constant
B4: 5Hg2-5Lg2 Fab fragment (Fab, V domains shown)
VH: QVQLVQSGAEVKKPGASVKVSCKASGYTFTDYWMHWVRQAPGQRLEWMGAIDTSDSYTSYNQKFKGRVTITRDTSASTAYMELSSLRSEDTAVYYCARDYGNFYYYAMDYWGQGTLVTVSS
VL: QAVVTQEPSLTVSPGGTVTLTCRSSTGAVTTSNYANWFQQKPGQAPRTLIYGTNNRAPWTPARFSGSLLGGKAALTLLGAQPEDEAEYYCALWYSNHWVFGGGTKLTVL
notes: as for B3

Experiments:
[1] = target: T1, human SEMA4A expressed on cells (UniProt ID Q9H3S1, isoform 1) (human, UniProt Q9H3S1 33-761); assay: direct binding of un-purified human IgG1 to MM.1S cells endogenously expressing human SEMA4A (Mirrorball, anti-human Alexa Fluor 647); single concentration, 1.56 % final
T1 construct: Cell-surface SEMA4A: endogenous on MM.1S, NCI-H929 and Karpas-25 cells, or expi293 cells transfected with Origene SC323738; also called human Semaphorin4A; SEMA4A endogenously expressed on MM.1S cells
T1 sequence: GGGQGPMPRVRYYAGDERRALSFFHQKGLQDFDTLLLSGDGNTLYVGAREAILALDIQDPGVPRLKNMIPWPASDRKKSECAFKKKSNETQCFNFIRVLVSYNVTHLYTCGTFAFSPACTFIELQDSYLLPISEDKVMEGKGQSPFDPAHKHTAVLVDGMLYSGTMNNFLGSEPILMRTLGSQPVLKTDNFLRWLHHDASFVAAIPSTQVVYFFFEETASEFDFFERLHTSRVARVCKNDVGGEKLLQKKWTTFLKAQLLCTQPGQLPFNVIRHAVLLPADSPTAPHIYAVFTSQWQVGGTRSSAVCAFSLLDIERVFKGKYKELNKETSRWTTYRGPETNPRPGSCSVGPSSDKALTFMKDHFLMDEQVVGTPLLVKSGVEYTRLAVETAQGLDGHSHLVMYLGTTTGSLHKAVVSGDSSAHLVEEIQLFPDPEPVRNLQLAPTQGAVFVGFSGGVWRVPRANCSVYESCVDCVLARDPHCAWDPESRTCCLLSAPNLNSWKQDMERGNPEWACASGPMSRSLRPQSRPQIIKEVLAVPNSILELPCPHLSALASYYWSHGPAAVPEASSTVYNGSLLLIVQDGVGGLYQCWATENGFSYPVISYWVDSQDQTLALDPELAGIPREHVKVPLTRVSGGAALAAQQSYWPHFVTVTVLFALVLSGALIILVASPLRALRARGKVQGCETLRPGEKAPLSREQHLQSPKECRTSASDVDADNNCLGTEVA
Description: The MM.1S binding assay assessed the ability of the un-purified human IgG1s to bind directly to human SEMA4A that was endogenously expressed by MM.1S cells. Direct binding of a single concentration of un-purified human IgG1s to MM.1S cells was measured via an anti-human secondary labelled with Alexa Fluor 647 (Invitrogen, A21445). 10 μl undiluted un-purified IgG, contained in Expi293 expression medium (Gibco, UK, A1435101), were added to the assay plate (Greiner Bio-one, UK, 781906), followed by 10 μl 8 nM anti-human Alexa Fluor 647 and 20 μl MM.1S cell suspension containing 1,500 cells. The assay plate was incubated for 4 hours at room temperature in the dark prior to reading on a Mirrorball fluorescence cytometer (SPT Labtech, UK) using a 640 nm laser for excitation and measuring emission in the FL-4 channel (650-690 nm). Data was analysed as Count x median mean intensity (x FLU). All dilutions were performed in Hanks' balanced salt solution (Sigma, UK; cat: H8264) containing 0.1% (w/v) BSA (Sigma, UK; cat: A9576). Data were analysed and graphed using GraphPad Prism software (GraphPad Software, Inc, La Jolla, CA).

[2] = target: T2, recombinant cynomolgus SEMA4A AviHis10, biotinylated (cynomolgus, UniProt Q9H3S1 32-677 (human entry), biotin on the Avi tag (BirA)); assay: BLI (OctetRED), biotinylated SEMA4A on streptavidin tip, Fab as analyte, 1:1 model
T2 construct: The text says amino acids 32-679 of G7NV79 with C-terminal Avi tag and His10 tag; also called Cyno SEMA4A AviHis10; cynoSEMA4A
T2 chain: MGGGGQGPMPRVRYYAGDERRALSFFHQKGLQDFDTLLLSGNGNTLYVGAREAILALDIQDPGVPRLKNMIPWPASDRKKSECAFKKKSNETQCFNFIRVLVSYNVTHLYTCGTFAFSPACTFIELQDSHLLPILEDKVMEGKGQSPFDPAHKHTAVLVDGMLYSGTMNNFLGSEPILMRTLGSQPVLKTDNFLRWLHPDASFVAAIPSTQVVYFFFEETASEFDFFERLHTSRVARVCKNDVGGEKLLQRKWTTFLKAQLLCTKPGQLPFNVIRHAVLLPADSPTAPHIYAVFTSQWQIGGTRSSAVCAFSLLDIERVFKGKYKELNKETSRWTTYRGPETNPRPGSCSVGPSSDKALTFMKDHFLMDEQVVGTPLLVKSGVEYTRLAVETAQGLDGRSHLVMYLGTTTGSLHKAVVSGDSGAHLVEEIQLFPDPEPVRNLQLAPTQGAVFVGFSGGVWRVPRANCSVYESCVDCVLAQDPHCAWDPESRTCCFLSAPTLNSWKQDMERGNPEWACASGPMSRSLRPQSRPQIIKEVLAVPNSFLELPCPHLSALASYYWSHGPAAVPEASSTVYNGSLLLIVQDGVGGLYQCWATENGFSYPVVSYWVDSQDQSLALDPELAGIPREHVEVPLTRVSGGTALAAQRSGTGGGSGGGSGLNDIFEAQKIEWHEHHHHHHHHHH
Description: (§1) An Octet Kinetics buffer (PBS containing 0.01% (v/v) BSA and 0.002% (v/v) Tween20) is typically used as the diluent buffer for the analyte samples and as the flow buffer during the dissociation phase. The experimental data is recorded as shift in interference pattern (nm) over time, which is directly proportional to the optical thickness at the biosensor tip, which in turn is an approximate measure of the mass of analyte bound. The proprietary Octet Data Analysis software package can then be used to process data and fit binding models to the data sets. Returned association (ka, M-1 s-1) and dissociation (kd, s-1) rate constants allow calculation of dissociation (KD, M) affinity constants.
(§2) The affinity of binding between the analytes (humanised and phage display derived IgGs as human Alya IgG1s and Fabs) and human SEMA4A and cynomolgus SEMA4A, was estimated using assays in which the biotinylated SEMA4A antigen was captured on a streptavidin sensor tip. A fresh sensor tip was used for each measurement and no regeneration was used. A series of dilutions of the lead Fabs and human Alya IgG1s (3.25-240 nM) were individually placed in contact with the ligand surface for a sufficient amount of time to observe sensorgrams that could be fitted to an appropriate binding model with confidence (typically 5 minutes), followed by an appropriate length of dissociation time (typically 10 minutes). Blank reference (0 nM analyte) data were subtracted from each dataset to reduce the impact of any buffer artefacts or non-specific binding effects. A 1:1 binding model was then fitted simultaneously to the data from each analyte titration using the Octet Evaluation software (Table 8).

[3] = target: T3, recombinant human SEMA4A AviHis10, biotinylated (human, UniProt Q9H3S1 33-683, biotin on the Avi tag (BirA)); assay: as above
T3 construct: The text says amino acids 33-683 of Q9H3S1 with C-terminal Avi tag and His10 tag; also called avi-SEMA4A-His10
T3 sequence: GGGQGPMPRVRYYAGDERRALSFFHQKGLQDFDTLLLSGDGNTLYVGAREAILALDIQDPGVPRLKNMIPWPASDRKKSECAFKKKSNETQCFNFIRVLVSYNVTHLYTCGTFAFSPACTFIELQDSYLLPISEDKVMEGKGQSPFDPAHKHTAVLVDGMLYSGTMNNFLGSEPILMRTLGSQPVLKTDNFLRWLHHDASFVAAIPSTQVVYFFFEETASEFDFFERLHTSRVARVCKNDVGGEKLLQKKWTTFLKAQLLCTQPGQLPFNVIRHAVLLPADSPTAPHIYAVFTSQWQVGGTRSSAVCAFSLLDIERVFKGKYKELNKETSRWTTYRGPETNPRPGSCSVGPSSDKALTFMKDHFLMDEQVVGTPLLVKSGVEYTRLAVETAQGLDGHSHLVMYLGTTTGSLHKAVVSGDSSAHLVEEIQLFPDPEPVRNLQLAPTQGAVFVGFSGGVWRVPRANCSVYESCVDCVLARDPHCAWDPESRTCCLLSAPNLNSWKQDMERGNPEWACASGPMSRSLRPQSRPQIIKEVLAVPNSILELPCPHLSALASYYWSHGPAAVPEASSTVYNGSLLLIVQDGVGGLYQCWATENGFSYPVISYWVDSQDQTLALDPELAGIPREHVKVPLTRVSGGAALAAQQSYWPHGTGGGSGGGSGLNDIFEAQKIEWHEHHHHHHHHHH
Description: as §1, §2

Binder	binding result [1]	Kd [2] [nM]	Kd [3] [nM]
B1	binds	–	–
B2	–	9	9
B3	–	73	66
B4	–	48	41
